Test results as given in publication PMC3063399 (Cell, 2011).
Like-named read-outs stand apart in the source and are kept apart here. Blank lines part the entries; values can stand above or below the molecule they belong to.

Key:
PAN = molecular target: T1, PAN (Methanocaldococcus jannaschii, UniProt Q58576); assay: α-32P-ATP binding, rapid spin gel filtration
T1 sequence (Q58576 1-430): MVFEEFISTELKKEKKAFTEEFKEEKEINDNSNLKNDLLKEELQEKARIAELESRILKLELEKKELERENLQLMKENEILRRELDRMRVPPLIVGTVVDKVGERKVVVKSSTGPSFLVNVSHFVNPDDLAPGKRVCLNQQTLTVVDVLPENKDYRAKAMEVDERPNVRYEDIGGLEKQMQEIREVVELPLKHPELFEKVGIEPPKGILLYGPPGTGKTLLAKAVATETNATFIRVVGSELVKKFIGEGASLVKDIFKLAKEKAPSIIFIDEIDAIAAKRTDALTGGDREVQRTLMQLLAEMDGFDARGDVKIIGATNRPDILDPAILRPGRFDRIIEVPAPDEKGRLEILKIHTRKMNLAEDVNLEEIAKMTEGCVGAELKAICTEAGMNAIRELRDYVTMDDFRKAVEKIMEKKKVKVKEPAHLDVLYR

PAN ATPase complex [1] = molecular target: PAN ATPase complex (UniProt Q58576); assay: fluorescence polarisation
PAN ATPase complex [2] = molecular target: PAN ATPase complex (UniProt Q58576); assay: fluorescence polarisation; remark: listed apart in the source
[3] = substrate: Nc1ncnc2c1ncn2[C@@H]1O[C@H](COP(=O)(O)OP(=O)(O)OP(=O)(O)O)[C@@H](O)[C@H]1O; assay: ATPase, inorganic phosphate release; assay type: biochemical, Methanocaldococcus jannaschii; conditions: 45 °C

Molecule: Nc1ncnc2c1ncn2[C@@H]1O[C@H](COP(=O)(O)OP(=O)(O)OP(=O)(O)O)[C@@H](O)[C@H]1O [ATP]
Kd (PAN): 13 µM

change in polarization (PAN ATPase complex [1]): 56 mP | change in polarization (PAN ATPase complex [2]): 7 mP
Molecule: FITC-casein (from UniProt P02666 16-224) (natural protein)

B1: PAN (Methanocaldococcus jannaschii DSM 2661) (protein)
chain: MVFEEFISTELKKEKKAFTEEFKEEKEINDNSNLKNDLLKEELQEKARIAELESRILKLELEKKELERENLQLMKENEILRRELDRMRVPPLIVGTVVDKVGERKVVVKSSTGPSFLVNVSHFVNPDDLAPGKRVCLNQQTLTVVDVLPENKDYRAKAMEVDERPNVRYEDIGGLEKQMQEIREVVELPLKHPELFEKVGIEPPKGILLYGPPGTGKTLLAKAVATETNATFIRVVGSELVKKFIGEGASLVKDIFKLAKEKAPSIIFIDEIDAIAAKRTDALTGGDREVQRTLMQLLAEMDGFDARGDVKIIGATNRPDILDPAILRPGRFDRIIEVPAPDEKGRLEILKIHTRKMNLAEDVNLEEIAKMTEGCVGAELKAICTEAGMNAIRELRDYVTMDDFRKAVEKIMEKKKVKVKEPAHLDVLYR
Km [3]: 263 ± 18 µM
